Where a chain is given by its changes, count along the chain named.
B1: Antibody R23 (antibody, from another filing, V domains shown)
VH: QVQLQESGPGLVKPSETLSLTCTVSGGSIEHYYWSWIRQPPGKGLEWIGYIYYSGSTNYNPSLKSRVTISVDTSKNQFSLKLSSVTAADTAVYYCARGKTGSAAWGQGTLVTVSS
VL: DIQMTQSPSSVSASVGDRVTITCRASQGISRWLAWYQQKPGKAPKLLIYAASSLQSGVPSRFSGSGSGTDFTLTISSLQPEDFATYYCQQTVSFPITFGGGTKVEIKR
B2: CD47-2 IgG (antibody, V domains shown)
VH: EVQLVESGGGLVQPGGSLRLSCAASGFTISNSFIHWVRQAPGKGLEWVAYIWPWSGSTGYADSVKGRFTISADTSKNTAYLQMNSLRAEDTAVYYCARGGFSMDHWGQGTLVTVSS
VL: DIQMTQSPSSLSASVGDRVTITCRASQDVSSKVAWYQQKPGKAPKLLIYGTNRLYPGVPSRFSGSGSGTDFTLTISSLQPEDFATYYCQQSSNYPLTFGQGTKVEIKR
notes: IgG made in CHO cells from the scFv; The VL-CL junction was not checked (VL ends in ...EIKR); also called antibody CD47-2
B3: CD47-26 IgG (antibody, V domains shown)
VH: EVQLVESGGGLVQPGGSLRLSCAASGFTITNFYIHWVRQAPGKGLEWVAKITPYNGDTHYADSVKGRFTISADTSKNTAYLQMNSLRAEDTAVYYCTRGGYAMDYWGQGTLVTVSS
VL: B2 VL with S31N, K32Y, N52S, S91H, N93S
notes: IgG made in CHO cells; constant domains as for m19; also called antibody CD47-26
B4: CD47-30 IgG (antibody, V domains shown)
VH: EVQLVESGGGLVQPGGSLRLSCAASGFTINNWWIHWVRQAPGKGLEWVAWIDPFNGDSDYADSVKGRFTISADTSKNTAYLQMNSLRAEDTAVYYCARGGFALDHWGQGTLVTVSS
VL: B2 VL with S31H, K32Y, G50S, N52S, S91H, N93S, L96I
notes: IgG made in CHO cells; constant domains as for m19; also called antibody CD47-30
B5: CD47-7 IgG (antibody, V domains shown)
VH: B2 VH with S30T, S32Y, F33Y, Y50S, W54G, S55Y, S57N, F101Y, H105F
VL: B2 VL with S30Y, S31T, K32R, G50Y, N52R, R53N, P56S, S91A, S92A
notes: IgG made in CHO cells; constant domains as for m19; also called antibody CD47-7
B6: scFv CD47-6 (scFv, V domains shown)
VL: B2 VL with K32R, G50Y, N52S, R53N, P56S, S91H, S92F
VH: B3 VH with F32W, Y33W, K50T, T52S, N55S, T97A, Y105H
notes: scFv
B7: scFv CD47-5 (scFv, V domains shown)
VL: B2 VL with S30H, S31N, G50S, T51A, N52T, S91H, S92F
VH: B4 VH with N30T, W32Y, W50H, D52W, F54G, N55V, S58T, L103M, H105L
notes: scFv
B8: scFv CD47-8 (scFv, V domains shown)
VL: B2 VL with S30H, S31Y, K32A, S91H, Y94F
VH: B2 VH with S30N, S32F, F33Y, Y50S, S57E, S71G, S102A, H105F
notes: scFv
B9: scFv CD47-14 (scFv, V domains shown)
VL: B2 VL with S31T, G50F, N52R, R53N, P56S, S91H, L96V
VH: B4 VH with N30S, W50G, D52S, F54Y, N55S, D57K, S58T, F101Y, L103M, H105L
notes: scFv
B10: scFv CD47-9 (scFv, V domains shown)
VL: B2 VL with S31N, K32R, P56T, S91H, S92F, L96I
VH: B4 VH with N31S, W50K, D52S, S58T, D59H, F101Y, L103M, H105I
notes: scFv
B11: scFv CD47-4 (scFv, V domains shown)
VL: B2 VL with D28S, S30D, S31N, K32G, G50S, T51A, N52T, P59L, N93T, Y94F
VH: EVQLVESGGGLVQPGGSLRLSCAASGFTINDYWIHWVRQAPGKGLEWVAHIWPTYGGTHYADSVKGRFTISADTSKNTAYLQMNSLRAEDAAVYYCARGGYSLDIWGQGTLVTVSS
notes: scFv
B12: scFv CD47-20 (scFv, V domains shown)
VL: B2 VL with S30H, S31N, G50Y, N52S, R53N, P56S, S91H, S92F, N93T
VH: B3 VH with T30S, F32Y, K50G, T52W, Y54S, N55G, D57S, H59S
notes: scFv
B13: scFv CD47-31 (scFv, V domains shown)
VL: B2 VL with S30H, G50S, P56S, S91H, L96V
VH: B3 VH with T30S, F32W, Y33W, K50A, T52N, Y54F, D57R, H59D
notes: scFv
B14: scFv CD47-27 (scFv, V domains shown)
VL: DIQMTQSPSSLSASVGDRVTITCRASQDVHNGVAWYQQKPGKAPKLLIFRTSWLLSGVPSRFSGSGSGTDFTLTISSLQPEDFATYYCQQGSSFPFTFGQGTKVEIKR
VH: B11 VH with D31N, H50R, W52S, T54F, Y55D, H59Y, A91T, S102A, L103M, I105L
notes: scFv
B15: scFv CD47-32 (scFv, V domains shown)
VL: B2 VL with S30H, S31Y, K32T, P56T, S91H, S92F, Y94F, L96I
VH: B4 VH with W32F, W50N, D52S, N55T, S58T, D59R, F101Y, L103M, H105I
notes: scFv
B16: scFv CD47-28 (scFv, V domains shown)
VL: DIQMTQSPSSLSASVGDRVTITCRASQDVHGKVAWYQQKPGKAPKLLIYYARNLYSGVPSRFSGSGSGTDFTLTISSLQPEDFASYYCQQYFNFPLTFGQGTKVEIKR
VH: B3 VH with F32W, Y33W, K50E, T52N, Y54F, N55G, D57N, H59Y
notes: scFv
B17: scFv CD47-29 (scFv, V domains shown)
VL: B2 VL with S30H, G50S, S91H, S92F, N93T
VH: B3 VH with F32W, Y33W, K50G, N55S, H59Y, T97A, M103I, Y105N
notes: scFv
B18: scFv CD47-22 (scFv, V domains shown)
VL: B14 VL with N31S, G32W, F49S, T51A, S52T, L55A, G91S, S93N, F96L
VH: EVQLVESGGGLVQPGGSLRLSCAASGFTINDYGIHWVRQAPGKGLEWVAGIGPFWGSTFYADSVKGRFTISADTSKNTAYLQMNSLRAEDTAVYYCARWMWGRWSAMDYWGQGTLVTVSS
notes: scFv
B19: scFv CD47-3 (scFv, V domains shown)
VL: B14 VL with H30S, G32R, F49S, T51A, S52N, W53G, L55A, S93H, F96I
VH: B4 VH with N30S, W50H, D52G, F54T, N55V, D57K, S58T, D59Y, L103M
notes: scFv

target: T1, human CD47 expressed on CHO-CD47 cells (human, UniProt Q08722 19-323); assay: flow cytometry, IgG on CHO-CD47 cells
T1 construct: whole, on cells; also called cellular CD47; full-length CD47
Method: The anti-CD47 scFvs were respectively expressed in their IgG formats in accordance with the procedure described in Materials and Methods. CHO cells expressing CD47 (CHO-CD47 cells) and wild-type CHO cells (CHO-WT cells) were respectively treated with anti-CD47 IgGs. After washing, the binding of the anti-CD47 IgGs was detected using a polyclonal APC-conjugated anti-human IgG antibody. Relative MFI was measured by flow cytometry. Antibody R23, a reference antibody constructed according to the sequences of ADI29341 disclosed in US20200181259A1, served as a positive control in this study.

Row | Binder | EC50
1 | B1 | 4.18 µg/mL
2 | B2 | 2.34 µg/mL
3 | B3 | 2.05 µg/mL
4 | B4 | 2.67 µg/mL
5 | B5 | 2.44 µg/mL

target: T2, human CD47 polypeptide (Met1-Pro139 of human CD47 fused with a Fc region) (human, UniProt Q08722 19-139); assay: ELISA on coated CD47 polypeptide (FIG. 1)
T2 construct: range 1-139; Made in HEK293 cells and purified from the supernatant; also called CD47 protein; not shown: Fc region

Row | Binder | binding result
6 | B6 | binds
7 | B7 | binds
8 | B8 | binds
9 | B9 | binds
10 | B10 | binds
11 | B11 | binds

target: T1, human CD47 expressed on CHO-CD47 cells; assay: flow cytometry on CHO-CD47 cells (MFI, FIG. 2)
Method: The binding of the anti-CD47 scFvs to the surface of CHO-CD47 cells was determined by flow cytometry, and the data was expressed as mean fluorescence intensity (MFI).

Row | Binder | binding result
12 | B12 | binds
13 | B13 | binds
14 | B14 | binds
15 | B15 | binds
16 | B6 | binds
17 | B7 | binds
18 | B8 | binds
19 | B16 | binds
20 | B9 | binds
21 | B17 | binds
22 | B10 | binds
23 | B18 | binds
24 | B19 | binds
25 | B11 | binds

target: T2, human CD47 polypeptide (Met1-Pro139 of …); assay: single colony ELISA, scFv supernatant on coated CD47 polypeptide
Method: Phages were infected into E. coli host cells followed by plating the infected E. coli cells on agar plate. Each colony was picked up and cultured in 2×YT (yeast extract tryptone) medium containing 100 μg/ml ampicillin with vigorous shacking at 37° C. After OD₆₀₀ of the culture was greater than 1, isopropyl β-d-1-thiogalactopyranoside (IPTG) was added to each culture and the final concentration of IPTG was 1 mM. The cultures were incubated at 37° C. overnight, and then centrifuged 4,000×g for 10 minutes. The scFvs were secreted and collected from the supernatant. The collected scFvs were added onto a 96-well plate coated with CD47 polypeptide followed by the analysis of ELISA so as to determining the binding affinity of the selected scFvs and CD47 polypeptide.

Row | Binder | binding result
26 | B12 | binds
27 | B13 | binds
28 | B14 | binds
29 | B15 | binds
30 | B16 | binds
31 | B17 | binds
32 | B18 | binds
33 | B19 | binds

Reference: US20220348652A1 (ANTAIMMU BIOMED, published 2022)
